Here are results for 13 molecules from patent US20180002381A1 (HONG KONG POLYTECHNIC UNIVERSITY, published 2018).

The labels stand for the following.
B3: Coiled coil domain of UVRAG (228-276) (other)
chain: TSNELKKESESLRLKILVLRNELERQKKALGREVAFLHKQQMALQDKG
notes: They have S at position 238 where the full-length entries have C; also called UVRAG coiled coil domain; UVRAG coiled coil
B4: Monomeric form of Beclin1 coiled coil domain with L182A mutation (other)
chain: DSEQLQREAKELALEEERLIQELEDVEKNRKVVAENLEKVQAEAERLDQEEAQYQREYSEFKRQQLELDDELKSVENQMRYAQMQLDKLKKTN
notes: The entry already carries L182A
B5: UVRAG (228-298) (other)
chain: TSNELKKESESLRLKILVLRNELERQKKALGREVAFLHKQQMALQDKGSAFSTEHGKLQLQKDSLSELRKE

The target of experiment [1] is B3. In words: isothermal titration calorimetry, Beclin 1 construct against UVRAG coiled coil domain. For orientation: ITC needs no label: the signal is the heat of the interaction.
Experiment [2] deals with T1, Beclin1 coiled coil domain (wild type) (rat, UniProt Q91XJ1 174-266).
T1 construct: residues 175-266; it pairs 1:1 with UVRAG; also called CC; entire Beclin1 coiled coil domain
Nature of the experiment: ITC.

For the experiment “UVRAG (228-298)”, the target named is B5. Nature of the experiment: isothermal titration calorimetry, monomeric Beclin1 coiled coil domain (L182A) and UVRAG (228-298).
In experiment [3] the target is B4. In words: ITC.
The target in experiment [4] is T1, Beclin1 coiled coil domain (wild type). In words: isothermal titration calorimetry, wild type Beclin1 coiled coil domain and UVRAG (228-298).
Target sequence in this assay (Q91XJ1 174-266 limits assumed): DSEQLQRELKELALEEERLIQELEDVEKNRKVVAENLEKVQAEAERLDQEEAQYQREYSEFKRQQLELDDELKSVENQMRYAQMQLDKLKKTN
Experiment [5] shares this target. Nature of the experiment: ITC. This is another data set of the same source.
A further experiment has as its target endogenous Beclin1 (UniProt Q14457 1-450). In words: cell-based or functional assay.

No end group written: not given here. Bounds are passed on as bounds.

Chain of endogenous Beclin1 (Q14457 whole entry): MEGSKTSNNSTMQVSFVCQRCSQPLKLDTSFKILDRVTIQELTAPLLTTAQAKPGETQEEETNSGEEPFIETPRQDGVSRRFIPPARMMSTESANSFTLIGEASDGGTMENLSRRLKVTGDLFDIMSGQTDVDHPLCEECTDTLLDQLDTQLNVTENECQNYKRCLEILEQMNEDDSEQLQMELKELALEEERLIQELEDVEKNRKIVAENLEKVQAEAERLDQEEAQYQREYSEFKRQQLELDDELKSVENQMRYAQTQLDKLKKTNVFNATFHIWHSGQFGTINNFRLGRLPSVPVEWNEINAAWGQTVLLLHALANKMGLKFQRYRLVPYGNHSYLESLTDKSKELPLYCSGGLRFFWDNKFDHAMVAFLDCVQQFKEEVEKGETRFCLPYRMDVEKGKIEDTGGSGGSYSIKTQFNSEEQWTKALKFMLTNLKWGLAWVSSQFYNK

B1: Beclin 1 coiled coil 3 (CC3) (other)
chain: RKVVAENLEKVQAEAERLDQEEAQYQREYSEFKRQQLELDDELKSVENQ
notes: 7 heptad repeats of the Beclin1 coiled coil domain
In general, Kd refers to the free concentration of one partner at which half of the binding sites on the other are occupied at equilibrium, for simple one-to-one binding. In turn, B1 gave a Kd in experiment [1] of 671 µM.

B2: Beclin 1 coiled coil 2 (CC2) (other)
chain: EERLIQELEDVEKNRKVVAENLEKVQAEAERLDQEEAQYQREYSEFKRQ
notes: as for B1
With B2, the affinity in experiment [1], expressed as Kd, was 139 µM. This Kd is about 4.8-fold lower than that of the molecule before. B3 showed a Kd in experiment [2] of approximately 240 nM. B4 had a Kd with UVRAG (228-298) of approximately 70 nM.

Consider B5, for which the binding result in experiment [3] was “binds”. The molecule also had a Kd in experiment [4] of approximately 240 nM.

B6: UVRAG 5E (L232E/L239E/L246E/L250E/L264E), coiled coil domain as used in ITC (other)
chain: TSNEEKKESECERLKILVERNEEERQKKALGREVAFEHKQQMALQDKGSAFSTEHGKLQLQKDSLSELRKE
For the molecule B6, the binding result in experiment [5] is “no binding”.

B7: UVRAG 6E (L232E/L239E/L246E/L250E/L264E/L271E), coiled coil domain as used in ITC (other)
chain: TSNEEKKESECERLKILVERNEEERQKKALGREVAFEHKQQMAEQDKGSAFSTEHGKLQLQKDSLSELRKE
On to B7, for which the binding result in experiment [5] is reported as “no binding”.

B8: UVRAG 2E (L246E/L250E), coiled coil domain as used in ITC (other)
chain: TSNELKKESECLRLKILVERNEEERQKKALGREVAFLHKQQMALQDKGSAFSTEHGKLQLQKDSLSELRKE
Regarding B8, the binding result in experiment [5] is recorded as “no binding”.

B9: Beclin 1 coiled coil 1 (CC1), residues 174-223 (other)
chain: DSEQAQRELKELALEEERLIQELEDVEKNRKVVAENLEKVQAEAERLDQE
modifications: not fully specified
In experiment [1], B9 displayed a Kd of 8.9 µM.

B10: Beclin 1 coiled coil 4 (CC4) (other)
chain: AERLDQEEAQYQREYSEFKRQQLELDDELKSVENQMRYAQMQADKLKKTN
notes: as for B1
B10 yielded a Kd in experiment [1] of 157 µM.

B11: FLAG-tagged full length Mus musculus UVRAG wild type (other, not shown: small tags and cut ends)
chain: MSSCASLGGPVPLPPPGPSAALTSGAPARALHVELPSQQRRLRHLRNIAARNIVNRNGHQLLDTYFTLHLCDNEKIFKEFYRSEVIKNSLNPTWRSLDFGIMPDRLDTSVSCFVVKIWGGKEEAFQLLIEWKVYLDGLKYLGQQIHARNQNEIIFGLNDGYYGAPCEHKGHPNAQKNLLQVDQNCVRNSYDVFSLLRLHRAQCAIKQTQVTVQRLGKEIEEKLRLTSTSNELKKESECLRLKILVLRNELERQKKALGREVAFLHKQQMALQDKGSAFSTEHGKLQLQKDSLSELRKECTAKRELFLKTNAQLTIRCRQLLSELSYIYPIDLNEHKDYFVCGVKLPNSEDFQAKEDGSIAVALGYTAHLVSMISFFLQVPLRYPIIHKGSRSTIKDNINDKLTEKEREFPLYPKGGEKLQFDYGVYLLNKNIAQLRYQHGLGTPDLRQTLPNLKNFMEHGLMVRCDRHHISNAIPVPKRQSSTFGGADGGFSAGIPSPDKVHRKRASSENERLQYKTPPPSYNSALTQPGVAMPTSGDSERKVAPLSSSLDTSLDFSKENKKAGVDLGSSVSGDHGNSDSGQEQGEALPGHLAAVNGTALPSEQAGPAGTLLPGSCHPAPSAELCCAVEQAEEIIGLEATGFTSGDQLEALSCIPVDSAVAVECDEQVLGEFEEFSRRIYALSENVSSFRRPRRSSDK
With B11, in the experiment with endogenous Beclin1, the “EGFR remaining after 5 hours in A549 cells” value (from here on “EGFR remaining after 5 hours”) is less than 10% and the “half-life of EGFR in A549 cells” value was approximately 2 h.

B12: FLAG-tagged full length Mus musculus UVRAG 1E (L246E) (other, not shown: small tags and cut ends)
chain: MSSCASLGGPVPLPPPGPSAALTSGAPARALHVELPSQQRRLRHLRNIAARNIVNRNGHQLLDTYFTLHLCDNEKIFKEFYRSEVIKNSLNPTWRSLDFGIMPDRLDTSVSCFVVKIWGGKEEAFQLLIEWKVYLDGLKYLGQQIHARNQNEIIFGLNDGYYGAPCEHKGHPNAQKNLLQVDQNCVRNSYDVFSLLRLHRAQCAIKQTQVTVQRLGKEIEEKLRLTSTSNELKKESECLRLKILVERNELERQKKALGREVAFLHKQQMALQDKGSAFSTEHGKLQLQKDSLSELRKECTAKRELFLKTNAQLTIRCRQLLSELSYIYPIDLNEHKDYFVCGVKLPNSEDFQAKEDGSIAVALGYTAHLVSMISFFLQVPLRYPIIHKGSRSTIKDNINDKLTEKEREFPLYPKGGEKLQFDYGVYLLNKNIAQLRYQHGLGTPDLRQTLPNLKNFMEHGLMVRCDRHHISNAIPVPKRQSSTFGGADGGFSAGIPSPDKVHRKRASSENERLQYKTPPPSYNSALTQPGVAMPTSGDSERKVAPLSSSLDTSLDFSKENKKAGVDLGSSVSGDHGNSDSGQEQGEALPGHLAAVNGTALPSEQAGPAGTLLPGSCHPAPSAELCCAVEQAEEIIGLEATGFTSGDQLEALSCIPVDSAVAVECDEQVLGEFEEFSRRIYALSENVSSFRRPRRSSDK
In the case of B12, in the experiment with endogenous Beclin1, the “EGFR remaining after 5 hours” value was less than 10% and the “half-life of EGFR in A549 cells” value is approximately 2 h.

B13: FLAG-tagged full length Mus musculus UVRAG 2E (L246E/L250E) (other, not shown: small tags and cut ends)
chain: MSSCASLGGPVPLPPPGPSAALTSGAPARALHVELPSQQRRLRHLRNIAARNIVNRNGHQLLDTYFTLHLCDNEKIFKEFYRSEVIKNSLNPTWRSLDFGIMPDRLDTSVSCFVVKIWGGKEEAFQLLIEWKVYLDGLKYLGQQIHARNQNEIIFGLNDGYYGAPCEHKGHPNAQKNLLQVDQNCVRNSYDVFSLLRLHRAQCAIKQTQVTVQRLGKEIEEKLRLTSTSNELKKESECLRLKILVERNEEERQKKALGREVAFLHKQQMALQDKGSAFSTEHGKLQLQKDSLSELRKECTAKRELFLKTNAQLTIRCRQLLSELSYIYPIDLNEHKDYFVCGVKLPNSEDFQAKEDGSIAVALGYTAHLVSMISFFLQVPLRYPIIHKGSRSTIKDNINDKLTEKEREFPLYPKGGEKLQFDYGVYLLNKNIAQLRYQHGLGTPDLRQTLPNLKNFMEHGLMVRCDRHHISNAIPVPKRQSSTFGGADGGFSAGIPSPDKVHRKRASSENERLQYKTPPPSYNSALTQPGVAMPTSGDSERKVAPLSSSLDTSLDFSKENKKAGVDLGSSVSGDHGNSDSGQEQGEALPGHLAAVNGTALPSEQAGPAGTLLPGSCHPAPSAELCCAVEQAEEIIGLEATGFTSGDQLEALSCIPVDSAVAVECDEQVLGEFEEFSRRIYALSENVSSFRRPRRSSDK
For the molecule B13, the “EGFR remaining after 5 hours” value in the experiment with endogenous Beclin1 is approximately 5%.
